Data set [1] concerns the molecule itself. The experiment in a line: cryo-EM structure; Eag1-CaM complex purified with Ca2+, reconstituted into 90:5:5 POPC:POPG:cholesterol liposomes with 300 mM KCl; polarized with valinomycin and exchange of the external solution to 300 mM NaCl (a smaller dataset on unpolarized vesicles too); 10 mM Tris pH 8.0.
In data set [2] the target is T1, vertebrate calmodulin (CaM) (vertebrate, UniProt P0DP23 1-149).
T1 construct: vertebrate calmodulin, expressed from a separate vector without a tag; source: HEK293S GnTI- cells infected with rEag1 and CaM baculoviruses, co-purified with rEag1 in the presence of Ca2+
Described as above. The note with it: both partners purified.

From PMC9674223, “Voltage-sensor movements in the Eag Kv channel under an applied electric field” (Proceedings of the National Academy of Sciences of the …, 2022) come the findings set out here.

B1: rat Eag1 with residues 773 to 886 truncated (rEag1) (natural protein, UniProt Q63472 1-962, looked up)
chain: MTMAGGRRGLVAPQNTFLENIVRRSNDTNFVLGNAQIVDWPIVYSNDGFCKLSGYHRAEVMQKSSACSFMYGELTDKDTVEKVRQTFENYEMNSFEILMYKKNRTPVWFFVKIAPIRNEQDKVVLFLCTFSDITAFKQPIEDDSCKGWGKFARLTRALTSSRGVLQQLAPSVQKGENVHKHSRLAEVLQLGSDILPQYKQEAPKTPPHIILHYCVFKTTWDWIILILTFYTAILVPYNVSFKTRQNNVAWLVVDSIVDVIFLVDIVLNFHTTFVGPAGEVISDPKLIRMNYLKTWFVIDLLSCLPYDVINAFENVDEGISSLFSSLKVVRLLRLGRVARKLDHYIEYGAAVLVLLVCVFGLAAHWMACIWYSIGDYEIFDEDTKTIRNNSWLYQLALDIGTPYQFNGSGSGKWEGGPSKNSVYISSLYFTMTSLTSVGFGNIAPSTDIEKIFAVAIMMIGSLLYATIFGNVTTIFQQMYANTNRYHEMLNSVRDFLKLYQVPKGLSERVMDYIVSTWSMSRGIDTEKVLQICPKDMRADICVHLNRKVFKEHPAFRLASDGCLRALAMEFQTVHCAPGDLIYHAGESVDSLCFVVSGSLEVIQDDEVVAILGKGDVFGDVFWKEATLAQSCANVRALTYCDLHVIKRDALQKVLEFYTAFSHSFSRNLILTYNLRKRIVFRKISDVKREEEERMKRKNEAPLILPPDHPVRRLFQRFRQQKEARLAAERGGRDLDDLDVEKGNALTDHTSANHSLVKASVVTVRESPATPVSFYPIPEQTLQATVLEVKHELKEDIKALNAKMTSIEKQLSEILRILMSRGSSQSPQDTCEVSRPQSPESDRDIFGAS
notes: rat Eag1 voltage-dependent K+ channel; construct corresponding to rat Eag1 with residues 773 to 886 truncated; Tetrameric channel (C4 symmetric up map); The C-terminal GFP-His6 tag was linked by a preScission protease site and removed; also called Eag channel; Eag Kv channel; not shown: GFP, C-terminal, cleaved; His6, C-terminal, cleaved
For the molecule B1, the binding result in data set [1] and in data set [2] was “binds” each time.
